The target of the assay is H3HK68 full length hemagglutinin WT trimer (A/Hong Kong/1/1968(H3N2)) (Influenza A virus A/Hong …, UniProt Q91MA7). As to the kind of experiment: BLI.
H3HK68 full length hemagglutinin WT trimer (A/Hong Kong/1/1968(H3N2)), sequence (Q91MA7 17-566, one chain of several): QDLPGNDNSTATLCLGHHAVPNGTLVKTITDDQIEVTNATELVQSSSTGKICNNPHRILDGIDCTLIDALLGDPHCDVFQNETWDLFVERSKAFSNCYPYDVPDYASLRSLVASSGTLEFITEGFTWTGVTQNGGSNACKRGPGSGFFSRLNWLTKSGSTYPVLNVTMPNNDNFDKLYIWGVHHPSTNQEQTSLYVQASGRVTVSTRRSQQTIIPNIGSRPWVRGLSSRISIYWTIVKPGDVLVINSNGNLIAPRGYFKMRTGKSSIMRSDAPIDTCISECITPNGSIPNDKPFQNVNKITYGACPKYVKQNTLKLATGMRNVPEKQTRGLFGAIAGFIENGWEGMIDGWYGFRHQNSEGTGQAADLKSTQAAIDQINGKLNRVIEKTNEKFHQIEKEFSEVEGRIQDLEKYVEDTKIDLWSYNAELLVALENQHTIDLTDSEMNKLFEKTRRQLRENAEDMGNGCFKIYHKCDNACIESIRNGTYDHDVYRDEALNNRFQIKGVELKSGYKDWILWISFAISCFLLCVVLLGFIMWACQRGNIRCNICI

B1: F045-92 IgG (H3 RBS-specific antibody) (antibody, V domains shown)
VH: EVQLVESGAEVKKPGSSVKVSCRASGTFYKYAINWVRQAPGQGLEWMGGIIPFFGTTNYAQKFQGRLTITADGSTNTAYMQLDSLRSEDTAVYYCAGPSITESHYCLDCAAKDYYYGLDVWGQGTTVTVSS
VL: not shown
With B1, binding was characterised by a dissociation constant (Kd) of 10 nM.

(Values after article PMC11870435 (2025).)
